Measurements taken from article doi:10.1101/2023.06.07.544024 (bioRxiv, 2023).

Target: FtsH (E. coli, UniProt P0AAI3 1-644)
Assay: cross-linking

Chain of FtsH (P0AAI3 whole entry): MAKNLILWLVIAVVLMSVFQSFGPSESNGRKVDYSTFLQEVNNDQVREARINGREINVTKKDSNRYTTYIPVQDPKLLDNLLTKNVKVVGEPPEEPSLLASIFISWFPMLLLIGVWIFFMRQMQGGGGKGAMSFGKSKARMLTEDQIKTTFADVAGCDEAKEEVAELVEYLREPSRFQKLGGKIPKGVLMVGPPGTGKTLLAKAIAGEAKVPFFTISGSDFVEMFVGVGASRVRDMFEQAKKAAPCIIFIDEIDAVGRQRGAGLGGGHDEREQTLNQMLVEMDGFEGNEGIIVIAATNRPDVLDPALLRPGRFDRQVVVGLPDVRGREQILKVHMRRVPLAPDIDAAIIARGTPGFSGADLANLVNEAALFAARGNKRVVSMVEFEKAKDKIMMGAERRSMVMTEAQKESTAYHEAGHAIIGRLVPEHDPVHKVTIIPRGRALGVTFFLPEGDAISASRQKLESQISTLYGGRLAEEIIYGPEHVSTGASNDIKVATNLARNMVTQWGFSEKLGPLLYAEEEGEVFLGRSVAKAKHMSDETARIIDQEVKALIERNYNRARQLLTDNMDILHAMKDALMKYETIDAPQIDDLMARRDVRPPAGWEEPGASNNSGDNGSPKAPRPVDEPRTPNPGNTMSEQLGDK

| binding result | Binder |
| --- | --- |
| binds | HflK (natural protein, E. coli) MAWNQPGNNGQDRDPWGSSKPGGNSEGNGNKGGRDQGPPDLDDIFRKLSKKLGGLGGGKGTGSGGGSSSQGPRPQLGGRVVTIAAAAIVIIWAASGFYTIKEAERGVVTRFGKFSHLVEPGLNWKPTFIDEVKPVNVEAVRELAASGVMLTSDENVVRVEMNVQYRVTNPEKYLYSVTSPDDSLRQATDSALRGVIGKYTMDRILTEGRTVIRSDTQRELEETIRPYDMGITLLDVNFQAARPPEEVKAAFDDAIAARENEQQYIREAEAYTNEVQPRANGQAQRILEEARAYKAQTILEAQGEVARFAKLLPEYKAAPEITRERLYIETMEKVLGNTRKVLVNDKGGNLMVLPLDQMLKGGNAPAAKSDNGASNLLRLPPASSSTTSGASNTSSTSQGDIMDQRRANAQRNDYQRQGE |
| binds | HflC (natural protein, E. coli) MRKSVIAIIIIVLVVLYMSVFVVKEGERGITLRFGKVLRDDDNKPLVYEPGLHFKIPFIETVKMLDARIQTMDNQADRFVTKEKKDLIVDSYIKWRISDFSRYYLATGGGDISQAEVLLKRKFSDRLRSEIGRLDVKDIVTDSRGRLTLEVRDALNSGSAGTEDEVTTPAADNAIAEAAERVTAETKGKVPVINPNSMAALGIEVVDVRIKQINLPTEVSEAIYNRMRAEREAVARRHRSQGQEEAEKLRATADYEVTRTLAEAERQGRIMRGEGDAEAAKLFADAFSKDPDFYAFIRSLRAYENSFSGNQDVMVMSPDSDFFRYMKTPTSATR |
